From PMC6954422 come the findings set out here.

Broadly, the stoichiometry N is a count of units in the complex or per binding partner.

Test [1] concerns the target stammer-less MITF(Δ) protein fragment 217–296 (Mus musculus). Kind of test: SEC. On the technique in general: SEC sorts molecules by how far they enter the pores of the column.
For test [2], the target named is MITF(wt) protein fragment 217–296 (Mus musculus). Kind of test: SEC.

As to “stammer-less MITF(Δ) protein fragment 217–296 (domain or fragment)”, the stoichiometry N in test [1] was 2. “MITF(wt) protein fragment 217–296 (domain or fragment)” had a stoichiometry N in test [2] of 2.
